Test results from the supplement of paper PMC9170038.

Test system: MS2 coat protein
Experiment: apparent KD of MS2 coat protein; designed switch direction (-1 OFF switch, 1 ON switch): 1; higher = weaker reporter binding
Method in brief: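 The reported apparent KD is a per-design median over clusters, from curve fits of normalised cluster fluorescence. Protein titrations used SNAP-549-labelled MS2 coat protein, doubled from 0.7 or 1.5 nM to 3 µM, in Tris-HCl pH 7.5 buffer with KCl, MgCl2, BSA, DTT, tRNA and Tween-20, with no input, 200 uM small-molecule ligand, or an oligonucleotide input. The RNA switches were transcribed on Illumina chips by stalled E. coli RNA polymerase.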

[1] = input ligand: microRNA oligo, concentration not stated
[2] = Eterna round: R95, input ligand: FMN 200 uM
[3] = Eterna round: R95, input ligand: microRNA oligo, concentration not stated
[4] = Eterna round: R95, input ligand: none

Sequence | apparent KD of MS2 coat protein (input ligand: FMN 200 uM) [nM] | apparent KD of MS2 coat protein [1] [nM] | apparent KD of MS2 coat protein (input ligand: none) [nM] | apparent KD of MS2 coat protein [2] [nM] | apparent KD of MS2 coat protein [3] [nM] | apparent KD of MS2 coat protein [4] [nM]
GGACGUCAAUCUCCUAAUUAAACAUGAGGAUCACCCAUGUCACAGGAUAUGAGUCCGAUUAGGACUCAGAAGGGUGAGACGUCC [Fiskers NG3ss - 49] (Eterna round: R96, puzzle: Same State NG 3) | 22.1 | 17.2 | 25.8 | – | – | –
AGUCCAGCGAAAGCUGGACAAAAGCAUGUACAUGAGGAUCACCCAUGUUCAUGUACAAGCUUUUUGUUCGUCUUAAA [JL mod - D95 - 14] (puzzle: Sensor for hsa-mir-208a) | – | – | – | 314 | 13.4 | 601
GUAGCAUACCGAGGAUAUUCAUAUUACAUGAGGAUCACCCAUGUUAUAGGUCGAUUACGACCUUGGGAGAAGGCGGAAUGCUAC [Xeonanis - 20 Mod32] (Eterna round: R96, puzzle: Same State NG 2) | – | 23 | – | – | – | –
GUUAAACAUGAGGAUCACCCAUGUCAAUGUAGUCGAGGAUAUGGGUAGCCAUGAGGCGUACUAGAAGGCGAGGAGU [Mat - Same State 1 - Mod of JL - D19] (puzzle: Same State 1) | – | – | – | 118 | 69.8 | 80.5
GAGUAGUUGAAAGGAUAUAGAUUAUUGUAGGAUCUAGAAGGUUCUAACAUGAGGAUCACCCAUGUAGGACUAUUCCUGUGUAUC [Parity 88 - Jieux - Same State NG 1] (Eterna round: R96, puzzle: Same State NG 1) | 9.56 | 9.27 | 12.6 | – | – | –
GACUCUAGAGGAGGAUAUGCAGAGGAUCACCCUGUAGAAGGCCUCAUAAGGAGGAUAUGCAGAGGAUCACCCUGUAGAAGGCCU [pwkr ssNG DX.20] (Eterna round: R96, puzzle: Same State NG 1) | 170 | 85.5 | 272 | – | – | –
GAAGGAUGAGCGUAGGAUAUAGGAGGAGUGACAUGAGGAUCACCCAUGUAGUAGGAGGGAGGGUACUAGAAGGACGAGGAAGAGG [JR_SS2_Sub068] (puzzle: Same State 2) | – | – | – | 67 | 32.2 | 57.4
AGUCCAGCGAAAGCUGGACAAAAGCAUGUACAUGAGGAUCACCCAUGUUCAUGUACAGGCUUUUUGCUCGUCUUAAA [JL mod - D95 - 8] (puzzle: Sensor for hsa-mir-208a) | – | – | – | 243 | 12.6 | 175
GCCCAGAGUAUAUGGGUACAAGCUUUUUGACAUGAGGAUCACCCAUGUACUCGUCUUAUGUGCAGUCCGUAGACUGC [JL-shm-2.19 Brourd mod] (puzzle: Sensor for hsa-mir-208a) | – | – | – | 18.2 | 27.3 | 17.4
GGCCUGCCGCAAGGAUAUGAAGCUUUCGCUCCGUCAGAAGGUGCACAUGAGGAUCACCCAUGUAUGCAGGCCAAGAAAUAAACC [Tisoenat] (Eterna round: R96, puzzle: Same State NG 1) | 13.2 | 25.9 | 37.1 | – | – | –
AAUUUAAUACAUGAGGAUCACCCAUGUAAUACUUGUAAGAUCAAGGAUAUCAGCUCGUUUAGAGCUGAGAAGGUGAUCACAUGU [SSNG3/19-D3] (Eterna round: R96, puzzle: Same State NG 3) | – | 40.7 | – | – | – | –
AACAUGAGGAUCACCCAUGUCAGGCCGCCGGCCUACAUGAGGAAGGAUAUAGCCUCGAAAAUUGGCUAGAAGGUCCUCAUGAAU [Letemaar] (Eterna round: R96, puzzle: Same State NG 3) | 115 | 4.24 | 26.1 | – | – | –
GCGAGCGUACUUGCUACAUGAGGAUCACCCAUGUUUACUGGACAGGAUAUGGUACCGUUUCGGUACCAGAAGGGUUCAUCAUGU [JL SSNG3 3.69] (Eterna round: R96, puzzle: Same State NG 3) | 278 | 248 | 597 | – | – | –
AGCCGAGACACAGGAUAUAGAUGUCUACAUGAGGAUCACCCAUGUAGCAACACGUGGUAGUGAUUCUAGAAGGGUGCUCGGCGC [Omei SS(NG)2 Cv10] (Eterna round: R96, puzzle: Same State NG 2) | 13.1 | 20.5 | 28.7 | – | – | –
CAGCGCUGUCGAGAGGAUAUGCGGUGAUGGACAUGAGGAUCACCCAUGUUAGCGGUAGCAUUACGGUAGAAGGCUCUACAGCUGC [Soteed - 3] (puzzle: Same State 2) | – | – | – | – | 24.7 | –
CGGCGCUGUCGAGAGGAUAUGCGGUGAUGGACAUGAGGAUCACCCAUGUUAGCGAUAGCAUUACGGUAGAAGGCUCCACAGCUGU [Soteed Omei mod 12] (puzzle: Same State 2) | – | – | – | 42.5 | 187 | 420
